Laboratory results reported in patent US20140086916A1 (Merck Sharp & Dohme, published 2014).
“And” between values parts separate entries of the source, which are not always exact repeats. Equal values may be shown once. Read-outs that look alike come from different tables or passages of the source.

T1: FcγRIIA H (UniProt P12318 34-217, limits assumed)
T1 construct: also called FcgRIIA H
T1 sequence (looked up): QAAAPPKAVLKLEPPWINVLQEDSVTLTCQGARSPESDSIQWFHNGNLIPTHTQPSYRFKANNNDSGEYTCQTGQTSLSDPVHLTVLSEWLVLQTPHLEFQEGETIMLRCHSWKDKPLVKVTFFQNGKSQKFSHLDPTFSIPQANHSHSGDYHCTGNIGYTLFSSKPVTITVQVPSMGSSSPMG

T2: FcγRIIb (Pichia pastoris produced) (UniProt P31994 43-217, limits assumed)
T2 construct: also called FcgRIIB; CD32B
T2 sequence (looked up): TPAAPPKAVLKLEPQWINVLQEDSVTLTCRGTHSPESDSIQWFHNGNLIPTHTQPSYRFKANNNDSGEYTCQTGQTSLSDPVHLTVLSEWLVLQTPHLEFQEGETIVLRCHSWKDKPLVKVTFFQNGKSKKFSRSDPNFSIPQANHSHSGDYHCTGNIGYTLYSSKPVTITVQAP

B1: human IgG1 Fc ("hFc") QM (F243A/V264A/S267E/L328F quadruple mutein Fc domain) (other)
chain: AEPKSCDKTHTCPPCPAPELLGGPSVFLAPPKPKDTLMISRTPEVTCVVADVEHEDPEVKFNWYVDGVEVHNAKTKPREEQYNSTYRVVSVLTVLHQDWLNGKEYKCKVSNKAFPAPIEKTISKAKGQPREPQVYTLPPSRDELTKNQVSLTCLVKGFYPSDIAVEWESNGQPENNYKTTPPVLDSDGSFFLYSKLTVDKSRWQQGNVFSCSVMHEALHNHYTQKSLSLSPGK
notes: Fc fragment of human IgG1 with hinge, produced in Pichia pastoris GFI6.0 host YGLY22834; also called YGLY28722; YGLY28725
B2: 1F11 IgG1 F243A/V264A/S267E/L328F quadruple mutein anti-PCSK9 antibody (antibody)
heavy: QVQLVQSGAEVKKPGASVKVSCKVSGYTFTDYYMNWVRQAPGQGLEWIGDINPNNGGAIYNQKFKGRATLTVDKSTSTAYMELRSLRSDDTAVYYCTSGIITEIAEDFWGQGTLVTVSSASTKGPSVFPLAPSSKSTSGGTAALGCLVKDYFPEPVTVSWNSGALTSGVHTFPAVLQSSGLYSLSSVVTVPSSSLGTQTYICNVNHKPSNTKVDKKVEPKSCDKTHTCPPCPAPELLGGPSVFLAPPKPKDTLMISRTPEVTCVVADVEHEDPEVKFNWYVDGVEVHNAKTKPREEQYNSTYRVVSVLTVLHQDWLNGKEYKCKVSNKAFPAPIEKTISKAKGQPREPQVYTLPPSRDELTKNQVSLTCLVKGFYPSDIAVEWESNGQPENNYKTTPPVLDSDGSFFLYSKLTVDKSRWQQGNVFSCSVMHEALHNHYTQKSLSLSPG
light: DIQMTQSPSSLSASVGDRVTITCKASQNVGTNVVWYQQKPGKAPKALIHSASYRYSGVPSRFSGSGSGTDFTLTISSLQPEDFATYYCQQYKTYPYTFGQGTKVEIKRTVAAPSVFIFPPSDEQLKSGTASVVCLLNNFYPREAKVQWKVDNALQSGNSQESVTEQDSKDSTYSLSSTLTLSKADYEKHKVYACEVTHQGLSSPVTKSFNRGEC
notes: Produced in Pichia pastoris GFI6.0; The strains give the same polypeptide with different N-glycan profiles; also called 1F11 QM; YGLY25265

Key:
[1] = molecular target: T3, FcγRIIIa-F158 (Pichia pastoris produced) (UniProt P08637 17-208, limits assumed); experiment: fold change of the Table 12 affinities
T3 construct: also called FcγRIIIA LF; FcgRIIIA LF
T3 sequence (P08637 17-208 limits assumed): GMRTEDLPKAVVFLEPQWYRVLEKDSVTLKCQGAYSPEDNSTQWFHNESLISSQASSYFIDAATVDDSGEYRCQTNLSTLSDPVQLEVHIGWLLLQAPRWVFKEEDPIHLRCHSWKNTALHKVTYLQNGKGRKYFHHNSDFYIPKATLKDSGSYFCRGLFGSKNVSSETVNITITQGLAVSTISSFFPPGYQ
Experimental: (§1) Fcγ receptor binding assays were carried out as described (Shields, et al. (2001) J. Biol. Chem. 276:6591-6604) with minor modifications. High protein binding 96-well plates (Corning Costar) were coated with 100 μL per well of Fcγ receptor solutions in PBS at the following concentrations: 1 μg/mL for both FcγRI (R&D Systems) and FcγRIIa (Pichia pastoris produced), 2 μg/mL for FcγRIIb (P. pastoris produced), 0.8 μg/mL for FcγRIIIa-F158, and 0.4 μg/mL for FcγRIIIa-V158 (both P. pastoris produced). All Pichia pastoris produced receptors were expressed and purified as described (Li, et al. (2006) Nature Biotechnology 24:210-215). Monomeric antibody samples added to the FcγRI plate were serially diluted in assay diluent (1×PBS, 1% BSA, and 0.05% Tween20) and 100 μL, per well was added to the plate. Antibody samples prepared for the remaining receptors require a one hour dimerization step with half molar ratio of goat anti-human IgG F(ab′)2 F(ab′)2 that is conjugated with alkaline phosphatase for detection. These dimerized F(ab′)2/antibody complexes were also serially diluted and 100 μL per well were added to the remaining receptor plates and all plates were incubated for one hour at room temperature. FcγRI bound sample antibody was detected using the same goat anti-human IgG F(ab′)2 alkaline phosphatase conjugated F(ab′)2. Sample antibody binding was quantified by measuring excitation at 340 nm and emission at 465 nm after 18 hour incubation with SuperPhos, 4-MUP Fluorescence AP Substrate Detection System (Virolabs).

FcγRIIA H [2] = molecular target: T1, FcγRIIA H; experiment: fold change of the Table 12 affinities
Experimental: as §1

[3] = molecular target: T2, FcγRIIb (Pichia pastoris produced); experiment: fold change of the Table 12 affinities
Experimental: as §1

[4] = molecular target: T3, FcγRIIIa-F158 (Pichia pastoris produced); experiment: FcγR affinity assay 'as described in Example 7', n = 3; printed as Affinity (nM) ± STDEV; footnote: values > ~5000 nM mean a poor binder
Experimental: as §1

[5] = molecular target: T4, FcγRIIIa-V158 (Pichia pastoris produced) (UniProt P08637 17-208, limits assumed); experiment: as above
T4 construct: also called FcγRIIIA LV; FcgRIIIA LV
T4 sequence (P08637 17-208 F176V limits assumed): as the sequence (P08637 17-208 limits assumed) above, with F160V counted along it
Experimental: as §1

FcγRIIA H [6] = molecular target: T1, FcγRIIA H; experiment: as above
Experimental: as §1

[7] = molecular target: T2, FcγRIIb (Pichia pastoris produced); experiment: FcγR affinity assay 'as described in Example 7', n = 3; printed as Affinity (nM) ± STDEV
Experimental: as §1

[8] = molecular target: T2, FcγRIIb (Pichia pastoris produced); experiment: ELISA-type plate assay, FcγR coated, antibody dimerized with AP-conjugated goat anti-human IgG F(ab')2, RFU readout
Experimental: as §1

[9] = molecular target: T4, FcγRIIIa-V158 (Pichia pastoris produced); experiment: fold change of the Table 12 affinities; Table 13 fold change computed from the Table 12 affinities
Experimental: as §1, with “These dimerized F(ab′)2/antibody complexes were also serially diluted and 100 μL per well were added to the remaining receptor plates and all plates were incubated for one hour at room temperature.” left out

wild-type human PCSK9 = molecular target: T5, wild-type human PCSK9 (human, UniProt Q8NBP7 31-692, limits assumed); experiment: SPR (Biacore T100), average KD of the six YGLY25267 runs
T5 construct: also called PCSK9 antigen
Experimental: The CM5 chip was immobilized on all flowcells with mouse anti-human IgG (Fc specific) according to the Biacore Human Antibody Capture Kit (Cat# BR-1008-39) to ˜7000RU. Anti-PCSK9 antibodies were captured on the chip to ˜500RU followed by analyte injections of wild-type human PCSK9 from 64.1 nM to 2.0 nM. Each flowcell was regenerated between each analyte injection with 3M MgCl for 40 seconds at 10 uL/min. Data was analyzed with Biacore T100 Evaluation Software using the 1:1 binding model using at least 5 point concentration range sensogram.

[10] = molecular target: T3, FcγRIIIa-F158 (Pichia pastoris produced); experiment: fold change of the Table 12 affinities (arrow not given); Table 13 fold change computed from the Table 12 affinities
Experimental: as §1, with “These dimerized F(ab′)2/antibody complexes were also serially diluted and 100 μL per well were added to the remaining receptor plates and all plates were incubated for one hour at room temperature.” left out

[11] = molecular target: T2, FcγRIIb (Pichia pastoris produced); experiment: ELISA-type plate assay, FcγR coated, antibody dimerized with AP-conjugated goat anti-human IgG F(ab')2, RFU readout; remark: listed apart in the source
Experimental: as §1

[12] = molecular target: T3, FcγRIIIa-F158 (Pichia pastoris produced); experiment: FcγR affinity assay 'as described in Example 7', n = 3; printed as Affinity (nM) ± STDEV; footnote: values > ~5000 nM mean a poor binder; Table 12 affinity (nM) assay, n = 3; value outside the tested concentration range
Experimental: as §1, with “These dimerized F(ab′)2/antibody complexes were also serially diluted and 100 μL per well were added to the remaining receptor plates and all plates were incubated for one hour at room temperature.” left out

[13] = molecular target: T4, FcγRIIIa-V158 (Pichia pastoris produced); experiment: as above
Experimental: as §1, with “These dimerized F(ab′)2/antibody complexes were also serially diluted and 100 μL per well were added to the remaining receptor plates and all plates were incubated for one hour at room temperature.” left out

[14] = molecular target: T2, FcγRIIb (Pichia pastoris produced); experiment: ELISA-type plate assay, FcγR coated, antibody dimerized with AP-conjugated goat anti-human IgG F(ab')2, RFU readout; remark: listed apart in the source
Experimental: as §1

[15] = molecular target: T2, FcγRIIb (Pichia pastoris produced); experiment: as above; remark: listed apart in the source
Experimental: as §1

FcγRIIA H [16] = molecular target: T1, FcγRIIA H; experiment: fold change of the Table 12 affinities (arrow not given)
Experimental: as §1, with “These dimerized F(ab′)2/antibody complexes were also serially diluted and 100 μL per well were added to the remaining receptor plates and all plates were incubated for one hour at room temperature.” left out

Binder | fold change in affinity vs hFcDM [1] [fold] | fold change in affinity vs hFcDM (FcγRIIA H [2]) [fold] | fold change in affinity vs hFcDM [3] [fold] | Kd [4] [µM] | Kd [5] [µM] | Kd (FcγRIIA H [6]) [µM] | Kd [7] [µM] | EC50 (read off the curve) [8] [µg/mL] | fold change in affinity vs 1F11 IgG1 GS5.0 [9] [fold] | Kd (wild-type human PCSK9) [µM] | fold change in affinity vs 1F11 IgG1 GS5.0 [10] [fold] | EC50 (read off the curve) [11] [µg/mL] | Kd [12] [µM] | Kd [13] [µM] | fold change in affinity vs 1F11 IgG1 GS5.0 [3] [fold] | EC50 (read off the curve) [14] [µg/mL] | EC50 (read off the curve) [15] | fold change in affinity vs 1F11 IgG1 GS5.0 (FcγRIIA H [16]) [fold]
B1 | 9 | 1 | 100 | 30.6 | 6.4 | 9.13 | 0.028 | – | – | – | – | – | – | – | – | – | – | –
B2 | – | – | – | – | – | 8.15 | 0.029 | ~0.04 | > 10000 | 0.00364 | 103 | ~0.05 | > 5 | > 5 | 19 | ~0.03 | ~0.04 µg/mL and ~0.1 µg/mL | 9
